For data set [1], the target named is T1, CSTF2 D50A RRM (Homo sapiens, UniProt P33240 1-107, D50A).
T1 sequence: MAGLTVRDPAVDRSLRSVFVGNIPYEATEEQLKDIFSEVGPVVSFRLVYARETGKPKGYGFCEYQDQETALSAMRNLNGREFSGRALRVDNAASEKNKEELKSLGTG
Kind of data set: fluorescence polarization. For orientation: Fluorescence polarisation rises when a labelled molecule tumbles more slowly, as on binding a larger partner.

The target in data set [2] is T2, CSTF2 (CstF-64) RRM wild type (Homo sapiens, UniProt P33240 1-107).
T2 sequence: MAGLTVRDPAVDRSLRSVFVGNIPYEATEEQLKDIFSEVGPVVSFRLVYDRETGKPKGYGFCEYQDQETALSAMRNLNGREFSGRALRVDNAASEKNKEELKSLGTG
Kind of data set: fluorescence polarization.

Data set [3] addresses T1, CSTF2 D50A RRM. As to the kind of experiment: ITC. (In general: In ITC the heat of successive injections is recorded.)
In data set [4] the target is T2, CSTF2 (CstF-64) RRM wild type. As to the kind of experiment: ITC.

For the molecule GUGUGUGUGUGUGUGU (ssRNA) [(GU)8 RNA, 3'-fluorescein], the results for the Kd (with CSTF2 D50A RRM [1]; in data set [2]) were 170 ± 10 nM and 260 ± 20 nM, respectively. AUUUUAUGUUUCAGGU (ssRNA) [SVL RNA, 3'-fluorescein] showed a Kd in data set [2] of 1450 ± 70 nM. AUUUUAUGUUUCAGGU (ssRNA) [SVL RNA, unlabeled]: the Kd in the data set with CSTF2 D50A RRM [3] was determined as 698 ± 60 nM; in data set [4], 1520 ± 170 nM.

Broadly, the Kd is the free concentration of one partner at which half of the binding sites on the other are occupied at equilibrium, for simple one-to-one binding. A high value points to a looser complex.

The values are drawn from article PMC7515730.
